T1: monkey CD22 protein (ACROBiosystems, catalog number SI2-R52Ha) (monkey, UniProt F6W485 20-688)
T1 construct: commercial protein; also called monkey CD22-ECD; monkey CD22-ECD-His
T1 sequence: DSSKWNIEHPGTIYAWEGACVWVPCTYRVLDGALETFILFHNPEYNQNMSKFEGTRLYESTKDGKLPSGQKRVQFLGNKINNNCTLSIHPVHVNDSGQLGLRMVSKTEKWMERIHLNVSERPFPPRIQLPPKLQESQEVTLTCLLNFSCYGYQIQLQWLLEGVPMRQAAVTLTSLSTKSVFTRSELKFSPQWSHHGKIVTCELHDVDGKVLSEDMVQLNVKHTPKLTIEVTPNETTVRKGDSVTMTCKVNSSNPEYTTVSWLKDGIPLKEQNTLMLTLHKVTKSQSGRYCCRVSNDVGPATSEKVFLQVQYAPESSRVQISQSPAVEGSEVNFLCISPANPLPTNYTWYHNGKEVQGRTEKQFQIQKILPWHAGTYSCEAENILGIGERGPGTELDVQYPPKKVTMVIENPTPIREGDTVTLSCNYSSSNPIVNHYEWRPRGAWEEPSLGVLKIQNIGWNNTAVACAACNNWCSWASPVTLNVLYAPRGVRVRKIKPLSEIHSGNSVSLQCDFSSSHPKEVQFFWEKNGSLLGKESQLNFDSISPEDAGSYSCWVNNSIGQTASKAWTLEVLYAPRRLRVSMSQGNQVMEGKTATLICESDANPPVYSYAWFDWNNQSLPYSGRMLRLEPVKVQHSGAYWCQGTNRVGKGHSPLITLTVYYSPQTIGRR

B1: F1.7.6 (antibody, human IgG1, kappa, V domains shown)
VH: EIQLQQSGPELVKPGTSVKVSCKASGYDFTRYNMYWVKQSHGKSLEWIGYIDPYNGDTRYNQKFKGKATLTVDKSSSTAYMHLNSLTSEDSAVYYCEAIYYDMEGYALDYWGQGTSVTVSS
VL: DIVMSQSPSSLAVSVGEKVTMSCKSSQSLLYSNNQKNYLAWYQQKPGQSPKKLIYWASTRESGVPDRLTGSGSGTDFTLTISSVTAEDLAVYYCQQFYSYPWTFGGGTKLEIKR
notes: human-murine chimeric IgG1 kappa; VL name legible
B2: F1.224.1 (antibody, human IgG1, kappa, V domains shown)
VH: EVLLHQSGPELVKPGASVKISCKASGYTFTDFNMDWVRQRHGQSLEWIGDVNPNNGGTIYNQKFKGKATLTVDKSSSTVYMDLRSLTSDDTAVYYCVRLGTSDYGEAWFISWGQGTVVTVSA
VL: DIVLTQSPASLAVSLGQRATISCRASQSVSTPRYSFMHWYQQKPGQPPKLLIKYASNLESGFPARFTGSGSGTDFTLNIHPVEEEDTAAYYCQQSWAIPWTFGGGTKLEIKR
notes: as for B1
B3: F1.231.15 (antibody, IgG1, V domains shown)
VH: QVQLQQPGAELVKPGASVKLSCKTSGYTFTIYWMQWVKQRPGRGLEWIGRIDPHSGDTHYNENFTTKVTLTVDETSNTAYMHLSGLTSEDSAVYYCARRDYSYYVLDYWGQGTSVTVSS
VL: DVVLTQTPLSLPVSLGDQASISCRSSQSLVHINGDTYLHWYLQKPGQSPKLLIYTVFNRFSGVPDRFSGSGSGTDFTLKISRVEAEDLGAYFCSQSTHVPYTFGGGTKLEIKR
notes: human-murine chimeric IgG1 kappa
B4: F1.250.16 (antibody, human IgG1, kappa, V domains shown)
VH: QVQLQQSGAEQVKPGASVKMSCKASGYTFTTYPIEWMKQNHGESLDWIGNIHPYNDDTEYNEKFKGKATLTVEKSSNTVFLELSRLTSDDSAVYYCVRGDYYNSRYWYFDVWGTGTTVTVSS
VL: DIVMTQSQKFMSTTVGDRVSITCKAGQNVRTAVAWYQQKPGQSPKLLIYSASTRYIGVPERFTGSGSGTDFTLTITNMQSEDLADYFCQQYSSFPLTFGTGTKLELKR
notes: as for B1
B5: F1.105.11 (antibody, human IgG1, kappa, V domains shown)
VH: EVQLQQSGPVLVKPGASVKMSCKASGYTFSDYFMNWVKQSHGKSLEWIGIINSYSGGTSYNQKFKGKATLTVDKSSSTAYMELNSLTSEDSAVYYCARWMDYWGQGTSVTVSS
VL: DVQITQSPSYLAASPGETITINCRTSESISKHLAWYQEKPGKTNKLLIYSGSTLQSGIPSRFSGSGSGTDFTLTISSLEPEDFAMYYCQQHNEYPWTFGGGTKLEIKR
notes: as for B1
B6: F1.267.9 (antibody, human IgG1, kappa, V domains shown)
VH: EVQLQQSGPVLVKPGASVKMSCKASGYTFTDFYMNWAKQSHGKSLEWVGVINPYNGGINYNQKFKGKATLTVDKSSSTAYMEFNSLTSEDSAVYYCARRMEYHAMDYWGQGTSVTVSS
VL: DIVLTQSPASLAVSLGQRATISCRASESVDNYGFDFIHWYQQKPGQPPKLLIYRASNLESGIPARFSGSGSRPDFTLTINPVETDDVATYYCQQSIKDPWTFGGGTKLEIKR
notes: as for B1

The source of these data is patent publication US20240084003A1 (SIMCERE ZAIMING PHARMACEUTICAL, published 2024).

The first test concerns the target T1, monkey CD22 protein (ACROBiosystems, …). The test can be described thus: ELISA, coated monkey CD22 protein, antibody 10 nM. The procedure:
(§1) In order to detect the binding activity of CD22 human-murine chimeric antibodies to CD22 protein, the purified human CD22-ECD-His protein obtained in Example 2 was diluted with PBS to a final concentration of 2 μg/mL, and then added to 96-well ELISA plate at 100 μl/well. The plate was sealed with plastic film and incubated overnight at 4° C., the plate was washed 2 times with PBS the next day, and then a blocking solution [PBS+2% (w/w) BSA] was added for blocking at room temperature for 2 hours. […] After incubation at 37° C. for 2 hours, the plate was washed 3 times with PBS. HRP (horseradish peroxidase)-labeled secondary antibody (purchased from Sigma, catalog number: A0170) was added, and incubated at 37° C. for 2 hours, and the plate was washed 5 times with PBS. TMB substrate was added at 50 μl/well, and incubated at room temperature for 30 minutes, then a stop solution (1.0 N HCl) was added at 50 μl/well.
(§2) In order to detect the species cross-binding activity of the chimeric antibodies, an ELISA plate was coated with commercial murine CD22 protein (ACROBiosystems, catalog number: SI2-M52Ha) and monkey CD22 protein (ACROBiosystems, catalog number: SI2-R52Ha), respectively, and the ELISA detection was performed according to the method in Example 5.1.
In general terms: In an ELISA, binding on a coated surface is turned into a signal by an enzyme label.
Regarding B1, the OD450 stood at 0.17 OD450.
B2 returned an OD450 of 2.48 OD450.
On the same count and under the same terms, the result for B3 reads 0.31 OD450; that for B4, 2.97 OD450; that for B5, 1.4 OD450.
Same read-out and setting: the result for B6 reads 1.89 OD450.

Another test shares this target. The test can be described thus: ELISA, coated monkey CD22 protein, antibody 0.1 nM. The procedure:
as §1, §2
The molecule B1 displayed an OD450 of 0.07 OD450.
The same measure, in the same setting: the result for B2 reads 2.3 OD450.
As for B3, the OD450 came out at 0.17 OD450.
As for B4, the OD450 was found to be 2.81 OD450.
Same read-out and setting: the result for B5 reads 1.31 OD450; that for B6, 1.07 OD450.

A further test shares this target. The test can be described thus: ELISA, coated monkey CD22 protein, antibody 100 nM. The procedure: as §1, §2
B1 had an OD450 of 0.44 OD450.
The same measure, in the same setting: the result for B2 reads 2.87 OD450; that for B3, 0.45 OD450; that for B4, 3.08 OD450.
With B5, the OD450 turned out to be 1.29 OD450.
Still for that read-out and setting: with B6 the figure was 2.27 OD450.

The next test shares this target. The test can be described thus: ELISA, coated monkey CD22 protein, antibody 0.01 nM. The procedure:
as §1, §2
In the case of B1, the OD450 is 0.06 OD450.
As for B2, the OD450 came to 1.86 OD450.
B3 came in with an OD450 of 0.09 OD450.
The same measure, in the same setting: the result for B4 reads 2.62 OD450; that for B5, 0.68 OD450.
Same read-out and setting: the result for B6 reads 0.27 OD450.

Another test has as its target T2, CD22 on cynomolgus monkey peripheral blood B cells (cynomolgus monkey (Macaca fascicularis)).
T2 construct: whole, on cells; also called cynomolgus monkey B cells
The test can be described thus: FACS, cynomolgus PBMC, CD20+ B cells, antibody 1 nM. From the text:
(§3) The monkey peripheral blood mononuclear cells were extracted from fresh cynomolgus monkey peripheral blood (purchased from Shanghai Medicilon Inc.) according to the instructions of Ficoll-Paque Plus (purchased from GE Healthcare, catalog number: 171440-02). After the cell suspension was centrifuged, the cells were resuspended in PBS containing 1% BSA, and then the cells were counted. At the same time, the murine antibody Brilliant Violet 605 anti-human CD20 (catalog number: 302334, purchased from Biolegend) with monkey CD20 cross-binding activity and the chimeric antibodies to be tested (1 nM, 10 nM and 100 nM) were added and incubated at room temperature for 1 hour. After washing the cells three times, APC-labeled secondary antibody anti-human IgG Fc (catalog number: 409306, purchased from Biolegend) was added. After incubation at room temperature in the dark for 30 minutes, the cells were washed 5 times, gently resuspended with PBS containing 1% BSA, and detected and analyzed by FACS (FACS Canto™, purchased from BD Company). Wherein CD20 was used as a marker of B cells, and the CD20-positive B cell population was gated, the proportion of chimeric antibody positive cells was analyzed, and the proportion of chimeric antibody positive cell population to B cell population was calculated after treatments with the chimeric antibodies at the concentrations of 100 nM, 10 nM and 1 nM, respectively. The scatter plot of double-stained cells by Brilliant Violet 605-labeled CD20 and APC secondary antibody indirectly labeled chimeric antibody is shown in FIG. 10A-FIG. 10B (under the condition of 1 nM of chimeric antibody concentration).
(In flow cytometry, cells or beads pass a laser one at a time.)
For the molecule B1, the “Proportion of chimeric antibody positive cells to B cells (%)” value (“Proportion … (%)” below) is 17%.
Still for that read-out and setting: the result for B2 reads 83%; that for B3, 11%.
On the same count and under the same terms, with B4 the figure was 92%; with B5, 46%; with B6, 39%.

The target in a further test is T1, monkey CD22 protein (ACROBiosystems, …). The test can be described thus: ELISA, coated monkey CD22 protein, antibody 0.001 nM. The procedure: as §1, §2
For B1, the OD450 amounted to 0.06 OD450.
The same measure, in the same setting: the result for B2 reads 0.6 OD450; that for B3, 0.06 OD450; that for B4, 1.02 OD450.
Molecule B5 showed an OD450 of 0.17 OD450.
Still for that read-out and setting: the result for B6 reads 0.1 OD450.

Another test addresses T2, CD22 on cynomolgus monkey peripheral …. The test can be described thus: FACS, cynomolgus PBMC, CD20+ B cells, antibody 10 nM.
Excerpt: as §3
As for B1, the “Proportion … (%)” value was 28%.
As to B2, the “Proportion … (%)” value worked out at 96%.
Same read-out and setting: with B3 the figure was 16%; with B4, 95%.
Same read-out and setting: with B5 the figure was 59%.
On the same count and under the same terms, the result for B6 reads 91%.

Another test has as its target T1, monkey CD22 protein (ACROBiosystems, …). The test can be described thus: ELISA, coated monkey CD22 protein, antibody 0.0001 nM. The procedure: as §1, §2
B1 showed an OD450 of 0.06 OD450.
Still for that read-out and setting: with B2 the figure was 0.15 OD450.
The same measure, in the same setting: the result for B3 reads 0.06 OD450.
B4 registered an OD450 of 0.23 OD450.
Molecule B5 displayed an OD450 of 0.07 OD450.
Same read-out and setting: the result for B6 reads 0.07 OD450.

Another test has as its target T2, CD22 on cynomolgus monkey peripheral …. The test can be described thus: FACS, cynomolgus PBMC, CD20+ B cells, antibody 100 nM.
Excerpt: as §3
Take B1: the “Proportion … (%)” value turned out to be 43%.
Same read-out and setting: with B2 the figure was 97%; with B3, 29%.
On the same count and under the same terms, the result for B4 reads 97%; that for B5, 69%.
Still for that read-out and setting: with B6 the figure was 95%.

A further test addresses T1, monkey CD22 protein (ACROBiosystems, …). The test can be described thus: ELISA, coated monkey CD22 protein, antibody 0.00001 nM. The procedure: as §1, §2
As to B1, the OD450 worked out at 0.06 OD450.
Same read-out and setting: the result for B2 reads 0.08 OD450.
B3 yielded an OD450 of 0.06 OD450.
Same read-out and setting: the result for B4 reads 0.1 OD450; that for B5, 0.06 OD450.
For B6, the OD450 stood at 0.06 OD450.
